Assay results: US20190218553, “VON WILLEBRAND FACTOR (VWF)-TARGETING AGENTS AND METHODS OF USING THE SAME” (DUKE UNIVERSITY, published 2019)

Tests used:
[1] = biological target: T1, von Willebrand factor (VWF) (Homo sapiens, UniProt P04275 P04275:764-2813); assay: filter; Bmax 73%; 2 mM CaCl2, 37 C; conditions: Haematologic Technologies Inc, label: 5'-32P
Description: (§1) Affinity constants (Kd values) were determined using double-filter nitrocellulose filter binding assays (Rusconi et al, Thromb. Haemost. $4:841-848 (2000)). All binding studies were performed in binding buffer F (20 mM HEPES, pH 7.4, 150 mM NaCl, 2 mM CaCl₂, and 0.01% BSA) at 37° C. Human purified VWF (factor VIII free) was purchased from Haematologic Technologies Inc. (Essex Junction, Vt.) and used in the double-filter nitrocellulose filter binding assay to determine the Kd of the aptamers. Briefly, RNA were end-labeled at the 5′ end with T4 polynucleotide kinase (New England Biolabs, Beverly, Mass.) and [γ³²P] ATP (Amersham Pharmacia Biotech, Piscataway, N.J.) (Fitzwater and Polisky, Methods Enzymol. 267:275-301 (1996)). End-labeled RNA was diluted in binding buffer F, heat denatured at 65° C. for 5 minutes, and subsequently equilibrated at 37° C. Direct binding was performed by incubating trace ³²P-RNA with varying concentrations of VWF protein in binding buffer F at 37° C. for 5 min. The fraction of the nucleic acid-protein complex which bound to the nitrocellulose membrane was quantified with a phosphorimager (Molecular Dynamics, Sunnyvale, Calif.). Non-specific binding of the radiolabeled nucleic acid was subtracted out of the binding such that only specific binding remained (Wong and Lohman, Proc. Natl. Acad. Sci. USA 90:5428-5432 (1993)).

[2] = biological target: T1, von Willebrand factor (VWF); assay: filter; Bmax 62%; 2 mM CaCl2, 37 C; conditions: tags: factor VIII free, Haematologic Technologies Inc; label: 5'-32P
Description: as §1

[3] = biological target: T1, von Willebrand factor (VWF); assay: filter; Bmax 59%; 2 mM CaCl2, 37 C; conditions: tags: factor VIII free, Haematologic Technologies Inc; label: 5'-32P
Description: as §1

[4] = biological target: T1, von Willebrand factor (VWF); assay: filter; Bmax 83%; 2 mM CaCl2, 37 C; conditions: Haematologic Technologies Inc, label: 5'-32P
Description: as §1

[5] = biological target: T1, von Willebrand factor (VWF); assay: filter; Bmax 56%; 2 mM CaCl2, 37 C; conditions: tags: factor VIII free, Haematologic Technologies Inc; label: 5'-32P
Description: as §1

[6] = biological target: T1, von Willebrand factor (VWF); assay: filter; Bmax 49%; 2 mM CaCl2, 37 C; conditions: Haematologic Technologies Inc, label: 5'-32P
Description: as §1

[7] = biological target: T1, von Willebrand factor (VWF); assay: filter; Bmax 10%; 2 mM CaCl2, 37 C; conditions: tags: factor VIII free, Haematologic Technologies Inc; label: 5'-32P
Description: as §1

[8] = biological target: T1, von Willebrand factor (VWF); assay: filter; Bmax 71%; 2 mM CaCl2, 37 C; conditions: Haematologic Technologies Inc, label: 5'-32P
Description: as §1

[9] = biological target: T1, von Willebrand factor (VWF); assay: filter; Bmax 55%; 2 mM CaCl2, 37 C; conditions: tags: factor VIII free, Haematologic Technologies Inc; label: 5'-32P
Description: as §1

[10] = biological target: T1, von Willebrand factor (VWF); assay: filter; Bmax 52%; 2 mM CaCl2, 37 C; conditions: tags: factor VIII free, Haematologic Technologies Inc; label: 5'-32P
Description: as §1

[11] = biological target: T1, von Willebrand factor (VWF); assay: filter; Bmax 79%; 2 mM CaCl2, 37 C; conditions: tags: factor VIII free, Haematologic Technologies Inc; label: 5'-32P
Description: as §1

[12] = biological target: T1, von Willebrand factor (VWF); assay: filter; Bmax 66%; 2 mM CaCl2, 37 C; conditions: tags: factor VIII free, Haematologic Technologies Inc; label: 5'-32P
Description: as §1

[13] = biological target: T1, von Willebrand factor (VWF); assay: filter; Bmax 57%; 2 mM CaCl2, 37 C; conditions: tags: factor VIII free, Haematologic Technologies Inc; label: 5'-32P
Description: as §1

[14] = tags: factor VIII free human purified VWF

B1: T25 vrt15 (ssRNA)
RNA: ACGAACUGCCCUCAGCUACUUUCAUGUUGCUGACGCACAGACGU
modifications: rAmCrGrArAfCfUrGfCfCfCfUfCrArGfCfUrAfCfUfUfUfCrAfUrGfUfUrGfCfUrGrAfCrGfCrAfCrArGrAfCmGfU-idT
Kd ([1]; tags: factor VIII free): 7.3 nM

B2: T25 vrt21 (ssRNA)
RNA: ACGAACUGCCCUCAGCUACUUUCAUGUUGCUGACGCACAGACGU
modifications: rAfCrGrArAfCfUrGfCfCfCmUfCrArGfCfUrAfCfUfUfUfCrAfUrGfUfUrGfCfUrGmAfCrGfCrAfCrArGrAfCrGfU-idT
Kd [2]: 17 nM

B3: T25 vrt12 (ssRNA)
RNA: ACGAACUGCCCUCAGCUACUUUCAUGUUGCUGACGCACAGACGU
modifications: rAfCrGrArAfCfUrGfCfCfCfUfCrArGfCfUrAmCmUmUmUmCmAmUmGfUfUrGfCfUrGrAfCrGfCrAfCrArGrAfCrGfU-idT
Kd [3]: 7.1 nM

ACGAACUGCCCUCGAUCGACGCACAGACGU (ssRNA, 2'-F U7,C9,C10,C11,U12,C20,C22,U30; ribo A19,G21; rest 2'-OMe; 3' idT) [T59 vrt24]
Kd [4, 14]: 2.4 nM

ACGAACUGCCCUCAGACUUAUGUCUGACGCACAGACGU (ssRNA, 2'-F C and U; 2'-OH A and G; 3' idT) [T51]
Kd [5]: 17 nM

ACGAACUGCCCUCGAUCGACGCACAGACGU (ssRNA, rAfCrGmAmAmCfUmGfCfCfCfUmCmGmAmUmCmGrAfCmGfCmAmCmAmGmAfCrGfU-idT) [T59 vrt3]
Kd ([6]; tags: factor VIII free): 288 nM

ACGAACUGCCCUCAGCACUUAUGUGCUGACGCACAGACGU (ssRNA, 2'-F C and U; 2'-OH A and G; 3' idT) [T41]
Kd ([6]; tags: factor VIII free): 8.6 nM

ACGAACGCCCUCGAUUAUUCGACGCACGACGU (ssRNA, 2'-F C and U; 2'-OH A and G; 3' idT) [T63]
Kd [7]: 83 nM

ACGAACUGCCCUCGAUUUCGACGCACAGACGU (ssRNA, 2'-F C and U; 2'-OH A and G; 3' idT) [T60]
Kd ([8]; tags: factor VIII free): 12.5 nM

ACGAACUGCCCUCUUUUUUGACGCACAGACGU (ssRNA, 2'-F C9,C10,C11,C22,G23,C24; rest 2'-OMe; 3' idT) [T94 vrt7]
Kd [8, 14]: 29 nM

ACGAACUGCCCUCGCACUUUCAUGUGCGACGCACAGACGU (ssRNA, 2'-F C and U; 2'-OH A and G; 3' idT) [T38]
Kd [9]: 9.6 nM

AAAAACGAACUGCCCUCGAUCGACGCACAGACGU (ssRNA, 2'-F C and U; 2'-OH A and G; 3' idT) [T77]
Kd [3]: 8.8 nM

ACGAACUGCCCUCGACUUAUGUCGACGCACAGACGU (ssRNA, 2'-F C and U; 2'-OH A and G; 3' idT) [T48]
Kd [10]: 12 nM

ACGAACUGCCCUCGUAUUAUUUCGACGCACAGACGU (ssRNA, 2'-F C9,C10,C11,C26,C28,U36; rest 2'-OMe; 3' idT) [T89 vrt3]
Kd [6, 14]: 63 nM

ACGAACUGCCCUCGUAUUAUUUCGACGCACAGACGU (ssRNA, 2'-F C and U; 2'-OH A and G; 3' idT) [T89]
Kd [11]: 12 nM

ACGAACUGCCCUCGUAUUAUUUCGACGCACAGACGU (ssRNA, 2'-F C9,C10,C11,C26,G27,C28,U36; rest 2'-OMe; 3' idT) [T89 vrt6]
Kd [1, 14]: 34.5 nM

ACGAACUGCCCUCGAUCGACGCACAGACGU (ssRNA, mAmCmGmAmAmCmUrGfCfCfCmUmCmGmAmUmCmGmAfCrGfCmAmCmAmGmAmCmGfU-idT) [T59 vrt18]
Kd ([4]; tags: factor VIII free): 5.7 nM

ACGAACUGCCCUCAGUACUUUCAUGUUCUGACGCACAGACGU (ssRNA, 2'-F C and U; 2'-OH A and G; 3' idT) [T35]
Kd [12]: 12 nM

ACGAACUGCCCUCAGCACUUUCAUGUGCUGACGCACAGACGU (ssRNA, 2'-F C and U; 2'-OH A and G; 3' idT) [T33]
Kd [12]: 15 nM

ACGAACUGCCCUCGAUCGACGCACAGACGU (ssRNA, mAmCmGmAmAmCfUrGfCfCfCmUmCmGmAmUmCmGmAfCmGfCmAmCmAmGmAmCmGfU-idT) [T59 vrt16]
Kd [13]: 132 nM
